In patent US20260199576A1 (KYOTO UNIVERSITY, published 2026):
Numbering of substitutions follows the chain as printed.

B1: UC antibody 1 (antibody, V domains shown)
VH: QVQLVESGGGVVQPGRSLRLSCAASGFTFSSYGMHWVRQAPGKGLEWVAFISYDGINKYYADSVKGRFTISRDNSKDTLYLQMNSLRAEDTAVYYCAKVIPRIRGSGDKAGIKDYYYYGMDVWGQGTTVTVSS
VL: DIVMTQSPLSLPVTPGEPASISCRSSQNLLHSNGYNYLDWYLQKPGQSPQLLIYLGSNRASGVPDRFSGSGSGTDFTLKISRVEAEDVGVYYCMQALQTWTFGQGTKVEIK
notes: Human monoclonal IgG from a UC patient, expressed in CHO cells; also called monoclonal autoantibody derived from an ulcerative colitis patient; anti-integrin αvβ6 antibody (UC antibody 1)
B2: UC antibody 9 (antibody, V domains shown)
VH: B1 VH
VL: QSVLTQPPSVSAAPGQKVTISCSGSSSNIGNNYVSWYQQLPGTAPKLLIYDNNKRPSGIPDRFSGSKSGTSATLGITGLQTGDEADYYCGTWDSSLSAVVFGGGTKLTVL
notes: Human monoclonal IgG from a UC patient, expressed in CHO cells
B3: UC antibody 8 (antibody, V domains shown)
VH: B1 VH with G33A, S75P, Q125R
VL: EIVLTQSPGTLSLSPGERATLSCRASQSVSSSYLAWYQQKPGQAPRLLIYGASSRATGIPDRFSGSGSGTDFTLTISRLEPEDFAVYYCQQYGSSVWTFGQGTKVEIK
notes: as for B2
B4: UC antibody 7 (antibody, V domains shown)
VH: VQLVESGGGVVQPGRSLRLSCAASGFTFSSYGMHWVRQAPGKGLEWVAFISYDGINKYYADSVKGRFTISRDNSKDTLYLQMNSLRAEDTAVYYCAKVIPRIRGSGDKAGIKDYYYYGMDVWGQGTTVTVSS
VL: EIVLTQSPATLSLSPGERATLSCRASQSVSSYLAWYQQKPGQAPRLLIYDASNRATGIPARFSGSGSGTDFTLTISSLEPEDFAVYYCQQRSNWLTFGGGTKVEIK
notes: as for B2
B5: UC antibody 5 (antibody, V domains shown)
VH: QVQLVQSGAEVKKPGASVKVSCKASGHTFSSFGISWVRQAPGQGLEWMGWISAYNGNTNSAQKFQGRVTMTTDTSTSTAYMELRSLRSDDTAVYYCARDRGFRGDTAMIKGGMDVWGQGTTVTVSS
VL: VLTQPPSVSVSPGQTASITCSGDKLGDKYACWYQQKSGQAPVLVIYQDSKRPSGIPERFSGSNSGNTATLTISGTQAMDEADYYCQAWDSSTALVFGGGTKLTVL
notes: as for B2
B6: UC antibody 6 (antibody, V domains shown)
VH: B5 VH
VL: QSVLTQPPSVSGAPGQRVTISCTGSSSTIGANNDVHWYQQLPGTAPKLLIYGNKNRPSGVSDRFSGSKSGTSASLAITGLQAEDEADYYCQSYDSSLSDLYVFGTGTKVTVL
notes: as for B2
B7: PSC antibody 1 (antibody, V domains shown)
VH: B5 VH
VL: QSALTQPASVSGSPGQSITISCTGTSSDVGGYNYVSWYQQHPGKAPQLIIYDVSKRPSGVSNRFSGSRSGNTASLTISGLQAEDEADYYCSSYTSSSTYVFGTGTKVTVL
notes: Human monoclonal IgG from a PSC patient, expressed in CHO cells
B8: UC antibody 4 (antibody, V domains shown)
VH: B5 VH with H27Y
VL: SYELTQPPSVSVSPGQTARITCSGDALPKQYAYWYQQKPGQAPVLVIYKDSERPSGIPERFSGSSSGTMATLTISGAQVEDEGDYYCSSTDSNSQRVFGGGTKLTVL
notes: as for B2
B9: UC antibody 2 (antibody, V domains shown)
VH: EVQLVESGGGLVKPGGSLRVSCVVSGFTITNAWMSWVRQAPGKGLEWVGRSKSKTDGGTTDYIAPVKGRFTISRDDSKNTLYLEMNSLKTEDTAVYYCATDRPLKLRGRDYNYYVMDVWGQGTTVTVSS
VL: DIQMTQSPSSLSASVGDRVTITCRASQSIARSLNWYQQKPGKAPNLLIYAASTLQSGVPSRFSGSGSGTDFTLTIGSLQPEDFATYSCQQSSSSPLTFGGGTRVEIK
notes: as for B2
B10: UC antibody 3 (antibody, V domains shown)
VH: QVQLVESGGGVVQPGRSLRVSCAASGFTFSIYGMHWVRQAPGKGLEWVAVISSDGTNQYYADSVKGRFTISRDNSNNTVYLQMNSLGGEDTAVYYCAKDRGRRGDSGWYRHFDYWGQGTLVTVSS
VL: B2 VL with I29N, L40V
notes: as for B2

Legend:
[1] = molecular target: T1, Biotinylated human integrin αvβ6 (ACROBiosystems, product number IT6-H82E4) (human, UniProt P06756 31-992; P18564 22-707, biotinylated (Avi tag at the C-terminus) ; Biotin on the Avi tag at the C-terminus of the αv chain; the tag is not in the letters.); experiment: BLI (Octet RED96), biotinylated integrin αvβ6 on biosensor, antibody in solution
T1 construct: Bought heterodimer; also called biotinylated integrin αvβ6; not shown: basic tail on the β6 chain
T1 sequence (P06756 31-992 limits assumed, chain 1 of 2): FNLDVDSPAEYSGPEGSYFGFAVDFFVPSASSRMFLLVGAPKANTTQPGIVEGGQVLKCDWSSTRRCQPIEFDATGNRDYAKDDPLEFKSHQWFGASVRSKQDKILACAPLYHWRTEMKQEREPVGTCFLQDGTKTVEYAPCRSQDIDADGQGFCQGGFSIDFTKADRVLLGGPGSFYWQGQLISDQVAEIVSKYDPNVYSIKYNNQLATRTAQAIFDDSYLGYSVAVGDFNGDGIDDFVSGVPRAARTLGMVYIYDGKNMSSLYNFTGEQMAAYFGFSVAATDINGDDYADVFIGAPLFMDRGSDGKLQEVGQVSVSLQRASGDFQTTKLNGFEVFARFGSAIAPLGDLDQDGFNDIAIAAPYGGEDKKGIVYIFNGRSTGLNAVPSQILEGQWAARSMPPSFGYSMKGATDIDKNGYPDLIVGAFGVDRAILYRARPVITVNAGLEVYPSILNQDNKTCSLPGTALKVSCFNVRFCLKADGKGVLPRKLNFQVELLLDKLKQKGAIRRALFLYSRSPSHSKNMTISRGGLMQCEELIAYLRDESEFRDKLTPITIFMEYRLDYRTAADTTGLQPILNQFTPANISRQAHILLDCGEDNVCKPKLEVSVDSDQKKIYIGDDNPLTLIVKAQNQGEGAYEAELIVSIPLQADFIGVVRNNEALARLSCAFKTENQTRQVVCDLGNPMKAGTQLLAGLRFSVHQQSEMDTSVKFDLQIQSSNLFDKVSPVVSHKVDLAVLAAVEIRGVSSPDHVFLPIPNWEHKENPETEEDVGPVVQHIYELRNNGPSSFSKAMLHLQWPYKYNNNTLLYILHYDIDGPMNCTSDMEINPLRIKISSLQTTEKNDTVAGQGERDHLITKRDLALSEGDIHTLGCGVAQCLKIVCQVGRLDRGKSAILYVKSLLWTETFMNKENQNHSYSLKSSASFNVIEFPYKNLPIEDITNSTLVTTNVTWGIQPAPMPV
T1 sequence (P18564 22-707 limits assumed, chain 2 of 2): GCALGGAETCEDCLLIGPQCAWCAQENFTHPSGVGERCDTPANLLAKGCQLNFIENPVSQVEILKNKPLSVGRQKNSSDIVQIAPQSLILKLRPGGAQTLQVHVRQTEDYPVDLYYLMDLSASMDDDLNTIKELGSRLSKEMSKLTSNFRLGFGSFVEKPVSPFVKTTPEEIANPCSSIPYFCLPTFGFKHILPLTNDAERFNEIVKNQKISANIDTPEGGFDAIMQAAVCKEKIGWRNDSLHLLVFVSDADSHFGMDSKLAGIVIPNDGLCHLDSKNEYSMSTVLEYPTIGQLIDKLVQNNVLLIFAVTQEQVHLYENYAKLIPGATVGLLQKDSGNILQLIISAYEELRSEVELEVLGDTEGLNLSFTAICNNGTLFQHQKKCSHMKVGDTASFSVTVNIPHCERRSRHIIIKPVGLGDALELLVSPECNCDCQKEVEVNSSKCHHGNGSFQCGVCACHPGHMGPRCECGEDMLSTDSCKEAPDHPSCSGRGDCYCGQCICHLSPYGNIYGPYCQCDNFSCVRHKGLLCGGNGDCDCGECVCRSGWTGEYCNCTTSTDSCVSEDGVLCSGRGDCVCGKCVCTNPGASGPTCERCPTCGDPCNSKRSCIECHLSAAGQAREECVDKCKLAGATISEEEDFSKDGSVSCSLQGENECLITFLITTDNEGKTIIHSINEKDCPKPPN
Experimental: Next, the binding affinity of the obtained anti-integrin αvβ6 monoclonal antibodies derived from UC or PSC patients was determined. The KD value was measured by biolayer interferometry using Octet RED96 (Sartorius). A 100 nM solution of the antibody, and serially diluted solutions of biotinylated integrin αvβ6 protein in the range of 200 to 6.25 nM were prepared using a buffer containing 20 mM Tris, 150 mM NaCl, 1 mM CaCl₂, 1 mM MgCl₂, 0.1% human serum albumin (014-27604; Fujifilm Wako Pure Chemical Industries, Ltd.) and 0.02% Tween 20 (1610781; Bio-Rad), and added to a 96-well plate (Greiner; 655209) at 200 μL/well. The biotinylated integrin αvβ6 was allowed to bind for 5 minutes to a biosensor (18-5136; Sartorius) soaked in the buffer. After washing of the biosensor, the biosensor was immersed in each antibody solution for 5 minutes (binding reaction). Then, the sensor was immersed in the buffer solution for 1 minute (dissociation reaction). The binding dissociation constant (KD value) between “integrin αvβ6-each monoclonal antibody” was determined using the analysis software (Octet BLI Analysis) attached to the device.

[2] = molecular target: T2, human integrin αvβ6 (ACROBiosystems, product number IT6-H52E1) (human, UniProt P06756 31-992; P18564 22-707); experiment: blocking ELISA: integrin αvβ6 coated, antibody added, then fibronectin 2 µg/mL; bound fibronectin detected, inhibition effect (%)
T2 construct: also called histidine-tagged integrin αvβ6; histidine-tagged extracellular domain protein of integrin αvβ6; not shown: linker and basic tail on the β6 chain
T2 sequence (P06756 31-992 limits assumed, chain 1 of 2): as the sequence (P06756 31-992 limits assumed, chain 1 of 2) above
T2 sequence (P18564 22-707 limits assumed, chain 2 of 2): as the sequence (P18564 22-707 limits assumed, chain 2 of 2) above
Experimental: Furthermore, a competitive assay with fibronectin for binding to integrin αvβ6 was performed to confirm the function of the obtained monoclonal antibodies. Briefly, a 96-well microtiter plate was coated with 150 μL/well of 2 μg/mL human integrin αvβ6 (ACROBiosystems, Cat. No. IT6-H52E1) overnight at 4° C., then blocked and incubated with 120 μL of monoclonal antibodies (0.0001-10 μg/mL) for 60 min at room temperature. After washing, the plate was incubated with 100 μL of 2 μg/mL fibronectin (FC010; MilliporeSigma, Burlington, MA) for 60 minutes at room temperature. After washing, an anti-fibronectin antibody (1:5000 dilution; ab2413; Abcam) was added to the plate, and the plate was incubated for 60 min at room temperature. […] After washing, the plate was incubated with 3,3′,5,5′-tetramethylbenzidine for 10 minutes, and the absorbance at 450 nm was measured to detect fibronectin bound to integrin αvβ6 on the solid phase. […] To calculate the binding inhibition rate, blank wells coated with integrin αvβ6 were incubated with fibronectin in the absence of antibody, and the optical density (OD) at 450 nm was measured in the same manner as above. The binding inhibition rate (%) was calculated according to the following formula. […]

[3] = molecular target: Integrin αvβ1 (ACRO Biosystems, IT1-H82W6) (UniProt P06756 31-992; P05556 21-728); experiment: adsorption test: UC antibody 1 150 ng, His-tagged integrin 5 or 25 µg/mL and anti-His-tag magnetic agarose; remaining antibody measured by ELISA, adsorption rate
Experimental: (§1) The concentration of anti-integrin αvβ6 antibodies contained in the recovered solution was measured by ELISA. A microtiter plate was coated with 100 μL/well of 2 μg/mL integrin αvβ6 overnight at 4° C., followed by washing and blocking. After washing, the recovered reaction solution was diluted 10-fold and added at 100 µL/well to the plate, and the plate was incubated at room temperature for 60 minutes. After washing, an HRP-labeled anti-human IgG antibody (50,000-fold dilution; ab6759; Abcam) was added at 100 μL/well to the plate, and the plate was incubated at room temperature for 60 minutes. After washing, the plate was incubated with 3,3′,5,5′-tetramethylbenzidine for 7 minutes, and the absorbance density (OD value) at 450 nm was measured to detect human IgG bound to integrin αvβ6 on the solid phase.
(§2) Anti-histidine tag antibody-labeled magnetic agarose (MBL, D291-10) in the amount of 10 μL (5 μg of anti-his tag antibody), 150 ng of the monoclonal autoantibody derived from an ulcerative colitis patient prepared in Example 2 (UC antibody 1 shown in Table 1), and 5 μg/mL or 25 μg/mL of any of integrins as mentioned below were mixed and reacted by inversion mixing in a total of 500 μL of solution at 4° C. for 12 hours. The solution after the reaction was recovered. As a control, a mixture to which no integrin was added (a mixture of the above-mentioned agarose and autoantibody only) was used to perform the similar reaction. [0157] Integrin αvβ1 (ACRO Biosystems, IT1-H82W6) [0158] Integrin αvβ3 (ACRO Biosystems, IT3-H52E3) [0159] Integrin αvβ5 (ACRO Biosystems, IT5-H52W5) [0160] Integrin αvβ6 (ACRO Biosystems, IT6-H52E1) [0161] Integrin αvβ8 (ACRO Biosystems, IT8-H52W4)
(§3) In the same manner as described in Example 7, the concentration of anti-integrin αvβ6 antibody contained in the recovered solution was determined, and the adsorption rate of anti-integrin αvβ6 antibody in the antibody adsorption reaction was calculated.

[4] = molecular target: Integrin αvβ3 (ACRO Biosystems, IT3-H52E3) (UniProt P06756 31-992; P05106 27-718); experiment: as above
Experimental: as §1, §2, §3

[5] = molecular target: Integrin αvβ5 (ACRO Biosystems, IT5-H52W5) (UniProt P06756 31-992; P18084 24-719); experiment: as above
Experimental: as §1, §2, §3

[6] = molecular target: Integrin αvβ8 (ACRO Biosystems, IT8-H52W4) (UniProt P06756 31-992; P26012 43-684); experiment: as above
Experimental: as §1, §2, §3

[7] = molecular target: T2, human integrin αvβ6 (ACROBiosystems, …); experiment: competition ELISA: integrin αvβ6 coated, peptide RGDS 0-100 µg/mL added together with PSC patient IgG 1:100 (competitor); bound human IgG detected (A450)
Experimental: A microtiter plate was coated with 100 μL/well of 2 μg/mL integrin αvβ6 overnight at 4° C., and then blocked. Peptide RGDS (SEQ ID NO: 9: Arg-Gly-Asp-Ser) or RGES (SEQ ID NO: 10: Arg-Gly-Glu-Ser) as RGD motif or RGE motif (control) was added together with 100 μL of patient-derived IgG dilution (1:100) to the plate, and the plate was incubated at room temperature for 60 minutes. After washing, 100 μl/well of an HRP-labeled anti-human IgG antibody (50,000-fold dilution; ab6759; Abcam) was added to the plate and the plate was incubated at room temperature for 60 minutes. After washing, the plate was incubated with 3,3′,5,5′-tetramethylbenzidine for 7 minutes, and an absorbance density (OD value) at 450 nm was measured to detect human IgG bound to integrin αvβ6 on the solid phase.

Row | Binder | Kd [1] [nM] | also measured
1 | B1 | 4.54 | IC50 (read off the curve) [2]: ~0.2 µg/mL; binding result [3]: no binding (tested: 25 µg/mL); binding result [4]: no binding (tested: 25 µg/mL); binding result [5]: no binding (tested: 25 µg/mL); binding result [6]: no binding (tested: 25 µg/mL)
2 | B2 | 5.96 | 
3 | B3 | 10.6 | 
4 | RGDS (also called RGD peptide; RGD motif) [Peptide RGDS] |  | binding result [7]: binds
5 | B4 | 5.18 | 
6 | B5 | 8.25 | 
7 | B6 | 20.8 | 
8 | B7 | 8.91 | 
9 | B8 | 3.15 | 
10 | B9 | 1.95 | 
11 | B10 | 15 | 
